Molecular target: ERK2 (unactivated, unphosphorylated) (UniProt P28482 P28482:2-360)
Assay: cleavage_in_vitro; half-maximal allozyme activation; about 100-fold activation by ERK2; 100 mM KCl, 1 mM MgCl2, 10 mM Tris 7.5, 34 C; text cites SEQ 39, listing gives Erk sensor molecule as SEQ 42
Protocol: To examine the dependence of activation on the concentration of ERK2, various amounts of ERK2 were added to different reactions (FIG. 31b). One half-maximal nucleic acid sensor molecule activation is promoted by ˜800 pg/μl ERK2.

ERK2 (unactivated, unphosphorylated), sequence (P28482 2-360, one chain of several): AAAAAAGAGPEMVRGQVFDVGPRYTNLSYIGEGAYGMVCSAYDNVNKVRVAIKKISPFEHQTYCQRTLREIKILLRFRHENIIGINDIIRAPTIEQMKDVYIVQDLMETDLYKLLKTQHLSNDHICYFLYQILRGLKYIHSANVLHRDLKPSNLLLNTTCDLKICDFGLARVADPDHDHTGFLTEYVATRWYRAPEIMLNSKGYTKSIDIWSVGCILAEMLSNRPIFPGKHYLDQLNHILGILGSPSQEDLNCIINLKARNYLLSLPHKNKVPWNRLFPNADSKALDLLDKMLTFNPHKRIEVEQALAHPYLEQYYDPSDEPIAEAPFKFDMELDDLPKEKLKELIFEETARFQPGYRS

B1: ERK2-responsive hammerhead allozyme (ssRNA)
RNA: GCGUGACCUGAUGAGUCACGCUAAGGAGGAUUUCCGAAAGCGGCUACGGUCCGCCAGUGUUACGAAACGUUCCC
EC50: ~0.8 µg/mL
